Data on 1 substance can be found in patent publication US20140161790A1.

Assay [1] has as its target recombinant human TNF (human) (UniProt P01375). Put plainly: Biacore (SPR), column 'hTNF Affinity (pM)'; antibody amine-coupled to a CM4 chip, recombinant human TNF as analyte at 6.25-200 nM in HBS-EP pH 7.4, 1:1 Langmuir fit.
Assay [2] has as its target human FcRn (heterodimer of alpha chain and beta2-microglobulin) (human) (UniProt P55899). In words: Biacore (SPR), column 'hFcRn Affinity (uM)'; antibody captured on anti-hFab CM5 chip, hFcRn as analyte, PBS pH 6.0, 1:1 Langmuir fit.

Sequence of human FcRn (heterodimer of alpha chain and beta2-microglobulin) (human) (P55899 24-297 limits assumed, chain 1 of 2): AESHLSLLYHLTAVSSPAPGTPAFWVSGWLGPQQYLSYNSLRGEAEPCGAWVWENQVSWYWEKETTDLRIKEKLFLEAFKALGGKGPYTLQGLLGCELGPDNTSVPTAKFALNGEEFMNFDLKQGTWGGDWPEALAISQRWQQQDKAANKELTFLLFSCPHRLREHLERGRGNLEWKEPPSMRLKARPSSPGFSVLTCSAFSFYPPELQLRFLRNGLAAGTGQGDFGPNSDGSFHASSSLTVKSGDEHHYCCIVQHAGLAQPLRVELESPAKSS
Sequence of human FcRn (heterodimer of alpha chain and beta2-microglobulin) (human) (P61769 21-119 limits assumed, chain 2 of 2, further chain): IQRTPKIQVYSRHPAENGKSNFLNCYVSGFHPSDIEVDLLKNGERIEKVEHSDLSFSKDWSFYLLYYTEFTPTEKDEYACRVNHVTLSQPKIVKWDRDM
Sequence of recombinant human TNF (human) (P01375 77-233 limits assumed): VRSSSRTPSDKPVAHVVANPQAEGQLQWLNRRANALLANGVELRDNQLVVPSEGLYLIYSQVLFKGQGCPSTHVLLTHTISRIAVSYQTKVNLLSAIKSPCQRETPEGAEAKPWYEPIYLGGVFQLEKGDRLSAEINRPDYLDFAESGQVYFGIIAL

As to “Humira (Commercial) adalimumab (antibody)”, the figures for the equilibrium dissociation constant (Kd) in assay [1] and in assay [2] were 0.42 pM and 2 µM, respectively.
